# Literature values as cited in paper PMC9206673.
# Experiments:
# [1] = target: neurotransmitter receptor peptide
# Gephyrin, sequence (Q8BUV3 whole entry): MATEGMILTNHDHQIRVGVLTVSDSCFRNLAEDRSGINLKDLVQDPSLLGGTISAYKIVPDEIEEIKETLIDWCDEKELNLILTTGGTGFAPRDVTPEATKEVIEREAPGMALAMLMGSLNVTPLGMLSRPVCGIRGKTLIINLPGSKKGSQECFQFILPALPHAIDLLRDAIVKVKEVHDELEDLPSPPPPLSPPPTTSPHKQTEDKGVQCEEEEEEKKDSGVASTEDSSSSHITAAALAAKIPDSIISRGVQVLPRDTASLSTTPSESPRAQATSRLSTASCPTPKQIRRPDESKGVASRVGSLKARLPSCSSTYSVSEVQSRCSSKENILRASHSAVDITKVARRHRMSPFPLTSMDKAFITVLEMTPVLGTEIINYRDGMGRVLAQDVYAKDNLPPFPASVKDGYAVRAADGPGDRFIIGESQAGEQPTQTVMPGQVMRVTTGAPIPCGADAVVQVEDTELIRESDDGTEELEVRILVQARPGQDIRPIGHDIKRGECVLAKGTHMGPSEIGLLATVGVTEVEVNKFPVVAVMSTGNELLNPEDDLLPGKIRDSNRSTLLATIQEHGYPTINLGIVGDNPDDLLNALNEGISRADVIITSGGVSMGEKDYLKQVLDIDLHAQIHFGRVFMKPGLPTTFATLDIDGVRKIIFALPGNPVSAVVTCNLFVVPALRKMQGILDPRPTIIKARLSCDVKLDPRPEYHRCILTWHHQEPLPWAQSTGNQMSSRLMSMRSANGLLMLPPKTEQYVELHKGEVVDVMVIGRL
substance,measurement,setting,value
Gephyrin (from UniProt Q8BUV3),Kd,[1],140 nM
same,Kd,gephyrin-binding peptide,0.14 nM
